Reference: PMC9091730 (Journal of Advanced Research, 2021)
Where two headings read alike, the source gives them in different places.

Experiments:
[1] = target: L-type voltage-gated Ca2+ channel (TcL-VGCC) (Tetranychus cinnabarinus, UniProt A0A3Q9D0J7); assay: voltage-clamp whole-cell current recording in Xenopus oocytes; type: cell-based
[2] = target: GST-fusion peptide of the wild-type IQ motif of T. cinnabarinus L-VGCC (Tetranychus cinnabarinus); assay: pull-down
[3] = target: GST-fusion peptide CT1B (PreIQ and IQ) of T. cinnabarinus L-VGCC (Tetranychus cinnabarinus); assay: pull-down
[4] = target: GST-fusion peptide of the N-terminal (NT) motif of T. cinnabarinus L-type voltage-gated Ca2+ channel (Tetranychus cinnabarinus); assay: pull-down
[5] = target: GST-fusion peptide of the PreIQ motif of T. cinnabarinus L-VGCC (Tetranychus cinnabarinus); assay: pull-down
[6] = target: GST-fusion peptide of the near-end C-terminal motif (CT1) of T. cinnabarinus L-VGCC (Tetranychus cinnabarinus); assay: pull-down
[7] = target: GST-fusion peptide of the wild-type IQ motif of T. cinnabarinus L-VGCC (Tetranychus cinnabarinus); assay: pull-down; remark: listed apart in the source

| Molecule | EC50 [1] | Kd [2] | stoichiometry N [3] | Kd [4] | Kd [5] | Kd [6] | Kd, two-site model, first printed value [6] | Kd, two-site model, second printed value [6] | stoichiometry N [6] | Kd [7] | percent increase of CaM1 binding in the presence of scoparone (5.54 μM) [7] |
| --- | --- | --- | --- | --- | --- | --- | --- | --- | --- | --- | --- |
| COc1cc2ccc(=O)oc2cc1OC [compound 1, scoparone] | 5540 nM | – | – | – | – | – | – | – | – | – | – |
| Tetranychus cinnabarinus calmodulin 1 (TcCaM1), recombinant, purified (natural protein) | – | 230 nM | > 1 | 112 nM | 85 nM | 931 nM | 2250 nM | 24 nM | > 1 | 430 nM | 47.1% |
